Assay results from patent US20210332141A1, “INSULIN-LIKE GROWTH FACTOR-1 RECEPTOR (IGF-1R) BINDING PROTEINS AND METHODS OF USE” (AMGEN INC., priority 2017, published 2021).
pIC50, pKd, pKi: −log10 of the molar value.

How the values were obtained:
HER-2 = HER-2 (Homo sapiens, UniProt P04626); details: cellular; read-out: IC50 against Others: HER-2; cited from earlier work
[1] = biological target: murine IGF-1R(ECD)-C3-mFc (murine) (UniProt Q60751); assay: IGEN ligand blocking, competitor human Ru labeled IGF-2 on murine IGF-1R(ECD)-C3-mFc
Chain of murine IGF-1R(ECD)-C3-mFc (murine) (Q60751 31-936): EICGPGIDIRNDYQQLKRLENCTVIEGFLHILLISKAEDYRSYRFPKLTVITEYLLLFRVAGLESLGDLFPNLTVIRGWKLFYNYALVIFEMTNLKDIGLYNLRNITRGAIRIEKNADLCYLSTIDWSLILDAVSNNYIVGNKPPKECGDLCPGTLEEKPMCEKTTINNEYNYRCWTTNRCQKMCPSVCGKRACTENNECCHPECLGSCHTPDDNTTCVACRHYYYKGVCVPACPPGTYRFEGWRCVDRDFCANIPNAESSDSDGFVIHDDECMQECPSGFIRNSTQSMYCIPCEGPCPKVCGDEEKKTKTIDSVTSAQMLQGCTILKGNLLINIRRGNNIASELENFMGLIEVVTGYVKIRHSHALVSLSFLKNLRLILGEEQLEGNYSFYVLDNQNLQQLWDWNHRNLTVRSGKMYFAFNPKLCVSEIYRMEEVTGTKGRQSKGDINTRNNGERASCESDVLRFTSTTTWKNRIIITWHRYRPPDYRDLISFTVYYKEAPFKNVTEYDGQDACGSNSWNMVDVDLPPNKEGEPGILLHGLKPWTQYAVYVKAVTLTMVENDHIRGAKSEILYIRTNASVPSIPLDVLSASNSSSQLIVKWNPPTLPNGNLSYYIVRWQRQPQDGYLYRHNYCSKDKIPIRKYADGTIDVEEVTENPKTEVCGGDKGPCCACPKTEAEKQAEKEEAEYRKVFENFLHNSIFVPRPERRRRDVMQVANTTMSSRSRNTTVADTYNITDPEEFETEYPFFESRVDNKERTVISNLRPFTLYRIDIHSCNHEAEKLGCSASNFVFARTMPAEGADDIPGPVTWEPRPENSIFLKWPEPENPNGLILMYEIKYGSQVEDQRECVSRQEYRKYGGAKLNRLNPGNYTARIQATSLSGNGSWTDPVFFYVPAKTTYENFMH

[2] = biological target: murine IGF-1R(ECD)-C3-mFc (murine) (UniProt Q60751); assay: Biacore, kinetic method, murine IGF-1R(ECD)-C3-mFc
[3] = biological target: murine IGF-1R(ECD)-C3-mFc (murine) (UniProt Q60751); assay: IGEN ligand blocking, maximal inhibition of human Ru labeled IGF-1 binding to murine IGF-1R(ECD)-C3-mFc
[4] = biological target: murine IGF-1R(ECD)-C3-mFc (murine) (UniProt Q60751); assay: IGEN ligand blocking, competitor human Ru labeled IGF-1 on murine IGF-1R(ECD)-C3-mFc

Chain of HER-2 (P04626 23-1255, species assumed): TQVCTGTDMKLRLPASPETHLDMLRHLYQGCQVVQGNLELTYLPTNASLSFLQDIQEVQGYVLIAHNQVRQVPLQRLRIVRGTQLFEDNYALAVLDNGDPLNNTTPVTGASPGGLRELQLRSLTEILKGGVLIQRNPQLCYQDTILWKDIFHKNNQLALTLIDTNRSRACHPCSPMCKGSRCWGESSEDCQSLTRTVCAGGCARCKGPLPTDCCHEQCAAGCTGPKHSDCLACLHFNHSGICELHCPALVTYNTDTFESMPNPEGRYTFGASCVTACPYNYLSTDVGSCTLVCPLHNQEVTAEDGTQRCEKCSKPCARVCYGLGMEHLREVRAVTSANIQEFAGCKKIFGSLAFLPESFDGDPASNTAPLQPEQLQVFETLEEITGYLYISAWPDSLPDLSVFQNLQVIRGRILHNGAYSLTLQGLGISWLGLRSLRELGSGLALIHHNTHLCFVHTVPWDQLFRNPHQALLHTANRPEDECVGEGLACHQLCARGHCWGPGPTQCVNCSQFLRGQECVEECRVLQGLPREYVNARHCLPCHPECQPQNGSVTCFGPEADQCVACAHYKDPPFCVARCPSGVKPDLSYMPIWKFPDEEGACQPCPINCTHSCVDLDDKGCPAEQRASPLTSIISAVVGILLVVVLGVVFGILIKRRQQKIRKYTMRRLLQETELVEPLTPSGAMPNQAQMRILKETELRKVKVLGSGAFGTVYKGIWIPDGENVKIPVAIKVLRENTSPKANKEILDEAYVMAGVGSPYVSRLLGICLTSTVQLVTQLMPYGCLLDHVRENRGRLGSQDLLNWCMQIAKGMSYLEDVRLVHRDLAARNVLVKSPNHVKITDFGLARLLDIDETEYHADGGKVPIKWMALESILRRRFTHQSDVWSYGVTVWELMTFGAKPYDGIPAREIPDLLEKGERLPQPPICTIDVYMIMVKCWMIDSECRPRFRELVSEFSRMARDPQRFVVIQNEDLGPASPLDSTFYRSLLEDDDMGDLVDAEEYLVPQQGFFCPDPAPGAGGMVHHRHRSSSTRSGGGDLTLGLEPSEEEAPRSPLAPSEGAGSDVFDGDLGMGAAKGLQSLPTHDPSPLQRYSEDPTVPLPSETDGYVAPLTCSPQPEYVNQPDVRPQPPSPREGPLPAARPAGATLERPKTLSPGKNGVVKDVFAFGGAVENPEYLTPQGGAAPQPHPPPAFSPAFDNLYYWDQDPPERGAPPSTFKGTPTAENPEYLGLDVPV

Row | Compound | pIC50 (HER-2) | pKi [1] | pKd [2] | IGF-1 Max (%) [3] [%] | pKi [4]
1 | C[C@H](Cc1ccc(O)c(O)c1)[C@@H](C)Cc1ccc(O)c(O)c1 [INSM-18, nondihydroguaiaretic acid] | 4.82 |  |  |  | 
2 | αIR3 (antibody) |  | < 6.00 | 9.48 | 31 | < 6.00
